According to paper PMC12176259, “Bacterial transcriptional repressor NrdR – a flexible multifactorial nucleotide sensor” (The Febs Journal, 2024):
Values joined by “and” are separate entries in the source; they are usually repeats but may differ in a detail not shown here. Equal entries are not always repeated.

Key:
[1] = biological target: the molecule itself; assay: SEC; Superdex 200 PC 3.2/30, 4–8 °C, Tris–HCl pH 9.0, 300 mM NaCl; NrdR pre‐incubated with ADP and dATP, nucleotides in the SEC buffer; 10–90 μM NrdR
[2] = biological target: the molecule itself; assay: SEC; ATP‐dATP‐loaded NrdR at high protein concentrations (440–550 μM)
[3] = biological target: the molecule itself; assay: SEC; Superdex 200 PC 3.2/30, 4–8 °C, Tris–HCl pH 9.0, 300 mM NaCl; NrdR with 0.2 mM ADP and 0.2 mM MgCl2
[4] = biological target: the molecule itself; assay: SEC; Superdex 200 PC 3.2/30, 4–8 °C, Tris–HCl pH 9.0, 300 mM NaCl; ATP‐loaded NrdR, excess MgCl2 (1 mM or higher); elutes in the void volume
[5] = biological target: the molecule itself; assay: SEC; Superdex 200 PC 3.2/30, 4–8 °C, Tris–HCl pH 9.0, 300 mM NaCl; NrdR pre‐incubated with ATP and dATP, nucleotides in the SEC buffer; 7–55 μM NrdR
[6] = biological target: the molecule itself; assay: SEC; Superdex 200 PC 3.2/30, 4–8 °C, Tris–HCl pH 9.0, 300 mM NaCl; NrdR pre‐incubated with AMP and dAMP
[7] = biological target: the molecule itself; assay: SEC; Superdex 200 PC 3.2/30, 4–8 °C, 25 or 50 mM Tris–HCl pH 9.0, 300 mM NaCl; 55 μM apo‐NrdR, no nucleotide effectors
[8] = biological target: the molecule itself; assay: SEC; Superdex 200 PC 3.2/30, 4–8 °C, Tris–HCl pH 9.0, 300 mM NaCl; ATP‐loaded NrdR (0.1 mM ATP), low MgCl2 (0.1–0.2 mM); 17–55 μM NrdR
[9] = biological target: the molecule itself; assay: crystal structure; SeMet‐EcoNrdR with ATP and dATP, 10 mg/mL; 0.1 M HEPES pH 7.5, 0.2 M MgCl2, 12.5% PEG 3350, 20 °C; one tetramer in the asymmetric unit

B1: Escherichia coli NrdR (natural protein, E. coli K‐12 strain MG1655)
chain: MHCPFCFAVDTKVIDSRLVGEGSSVRRRRQCLVCNERFTTFEVAELVMPRVVKSNDVREPFNEEKLRSGMLRALEKRPVSSDDVEMAINHIKSQLRATGEREVPSKMIGNLVMEQLKKLDKVAYIRFASVYRSFEDIKEFGEEIARLED
notes: Transcriptional repressor NrdR of E. coli K‐12 strain MG1655, wild type (NP_414947.1); The oligomeric state depends on the loaded nucleotides (apo: dimer); ATP‐dATP, ADP‐dATP, ADP, AMP‐dAMP: tetramer; also called EcoNrdR; E. coli NrdR; source: E. coli BL21(DE3), purified (HisTrap FF Ni‐Sepharose, desalting)
Which “stoichiometry N” value [1] does the source give for B1 here?
Its value is 4.8 subunits.

What about the “stoichiometry N” value [2] of the same protein?
The value was 8 subunits and 16 subunits.

What about the “stoichiometry N” value [3] of the same protein?
Its value is 4.5 subunits.

What about the “stoichiometry N” value [4] of the same protein?
The value was > 33 subunits.

And the “stoichiometry N” value [5]?
Its value is 4.5 subunits.

What about the “stoichiometry N” value [6] of the same protein?
The value was 4.8 subunits.

What about the “stoichiometry N” value [7] of the same protein?
The value was 2.1 subunits.

What about the “stoichiometry N” value [8] of the same protein?
Its value is 12.1 subunits.

B2: Selenomethionine‐derivatized Escherichia coli NrdR (natural protein, E. coli K‐12 strain MG1655)
chain: B1 chain
modifications: selenomethionine in place of methionine
notes: Transcriptional repressor NrdR of E. coli K‐12 strain MG1655, wild type (NP_414947.1), from the same plasmid pET30a(+)::nrdR as m1; Same construct as m1, made in a methionine auxotroph with seleno‐L‐methionine; also called SeMet‐EcoNrdR; Se‐Met substituted EcoNrdR; source: E. coli B834 (DE3) in SelenoMet Minimal Media, purified
Does B2 bind [9]?
Result: binds
